Data from paper PMC7249126.

Assays:
[1] = target: recombinant CD81 large extracellular loop (CD81-LEL); test: peptide or protein array; direct analysis on a 3-D biochip: CD81-LEL covalently immobilised in spots (300 pg/spot) on macroporous P(GMA-co-DEGDMA), blocked with BSA; E2-GFP or VMPs in solution, 0.01 M PBS pH 7.4 (VMPs also in spiked human blood plasma), 2 h, 37 °C; GFP fluorescence read; apparent dissociation constants from adsorption isotherms linearised in double reciprocal coordinates
[2] = target: recombinant CD81 large extracellular loop (CD81-LEL); test: peptide or protein array; sandwich analysis on a 3-D biochip: CD81-LEL immobilised (300 pg/spot); E2-GFP or VMPs at 1500 ng/mL, 2 h, 37 °C; then Cy3-labelled polyclonal anti-E2 antibodies (1000 ng/mL, 3 h) for detection; 0.01 M PBS pH 7.4 or spiked human blood plasma

Substance | Kd [1] [nM] | decrease in relative signal intensity against free E2 [1] [%] | decrease in relative signal intensity against free E2 [2] [%]
chimeric protein E2-superfolder GFP (HCV E2 core, 412-645 aa) (domain or fragment) | 11.6 |  | 
hepatitis C virus-mimetic particles (HC VMPs): PLA-b-PEG nanoparticles bearing E2-GFP on their surface | 26.3 | 40 | 45 to 48
